# B1: Antibody-drug conjugate (3) (antibody, human IgG1, kappa, V domains shown)
# VH: QVQLQQWGAGLLKPSETLSLTCAVYGGSFSGYYWSWIRQPPGKGLEWIGEINHSGSTNYNPSLKSRVTISVETSKNQFSLKLSSVTAADTAVYYCARDKWTWYFDLWGRGTLVTVSS
# VL: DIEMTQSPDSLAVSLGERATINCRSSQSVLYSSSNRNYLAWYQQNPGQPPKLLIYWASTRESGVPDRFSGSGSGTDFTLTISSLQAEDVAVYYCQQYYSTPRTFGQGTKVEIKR
# modifications: may carry one drug-linker molecule (L1 species of Common procedure F); position not given; drug-linker -(Succinimid-3-yl-N)-CH2CH2CH2CH2CH2-C(=O)-GGFG-NH-CH2CH2CH2-C(=O)-(NH-DX) (exatecan) on cysteines by thioether bond at the reduced disulfide bonds of the hinge part; positions not given; average 4.9 drug molecules per antibody (Common procedure E)
# notes: also called ADC (3)
# B2: Antibody-drug conjugate (13) (antibody, human IgG1, kappa, V domains shown)
# VH: B1 VH
# VL: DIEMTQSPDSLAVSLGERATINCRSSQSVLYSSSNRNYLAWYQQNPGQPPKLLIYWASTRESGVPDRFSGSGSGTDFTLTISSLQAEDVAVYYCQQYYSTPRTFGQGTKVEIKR
# modifications: may carry one drug-linker molecule (L1 species of Common procedure F); position not given; drug-linker -(Succinimid-3-yl-N)-CH2CH2CH2CH2CH2-C(=O)-GGFG-NH-CH2-O-CH2-C(=O)-(NH-DX) (exatecan) on cysteines by thioether bond at the reduced disulfide bonds of the hinge part; positions not given; average 6.2 (Common procedure E) or 7.0 (Common procedure F) drug molecules per antibody
# notes: also called ADC (13)
# Molecular target: T1, human epidermal growth factor receptor 3 (HER3) (human, UniProt P21860 20-1342)
# T1 construct: whole, on cells; also called ErbB3; HER3 protein
# Assay: flow cytometry on HCC1569 cells, PE-coupled anti-human secondary antibody; one-site specific binding fit (GraphPad Prism)
# Protocol: A human breast cancer cell line HCC1569 (CRL-2330) from ATCC was cultured in an RPMI1640 medium (purchased from Invitrogen Corp., containing 10% […] (manufactured by Invitrogen Corp.) and 2 mM L-glutamine (manufactured by Invitrogen Corp.)). The cells were dissociated from the culture plate using ACCUTASE® SOLUTION (Millipore Corp., SCR005) or EDTA (5 mM, phosphate buffered saline (PBS, 137 mM sodium chloride, 2.7 mM potassium chloride, 1.47 mM potassium dihydrogen phosphate, and 10.5 mM disodium hydrogen phosphate)), and the number of living cells was measured by trypan blue treatment. The same numbers of cells suspended in a fluorescence-activated cell sorting (FACS) buffer (PBS containing 3% FBS and 0.004% sodium azide) were inoculated to 96-well U-bottom plates, and the cells were precipitated by centrifugation and suspended in 100 uL of an ice-cooled antibody or antibody-drug conjugate dilution or FACS buffer.
# The cells of each group were reacted with a primary antibody dilution for 45 minutes on ice and then washed with a FACS buffer. […]
# FIG. 3 and Table 1 show the mean fluorescence intensity of HCC1569 treated with serial dilutions of U1-59 or each antibody-drug conjugate. The equilibrium binding affinity KD and the maximum binding strength Bmax were calculated using GraphPad Prism software.
Binder,Bmax,Kd [nM]
B1,29000,
B2,,2.73
